Results from patent US20240309087A1 (SHANGHAI JUNSHI BIOSCIENCES, published 2024).
Changes are numbered by the printed parent chain.

T1: recombinant cynomolgus monkey CD112R antigen (cynomolgus monkey, UniProt A0A2K5WVV8 1-322)
T1 construct: bought
T1 sequence: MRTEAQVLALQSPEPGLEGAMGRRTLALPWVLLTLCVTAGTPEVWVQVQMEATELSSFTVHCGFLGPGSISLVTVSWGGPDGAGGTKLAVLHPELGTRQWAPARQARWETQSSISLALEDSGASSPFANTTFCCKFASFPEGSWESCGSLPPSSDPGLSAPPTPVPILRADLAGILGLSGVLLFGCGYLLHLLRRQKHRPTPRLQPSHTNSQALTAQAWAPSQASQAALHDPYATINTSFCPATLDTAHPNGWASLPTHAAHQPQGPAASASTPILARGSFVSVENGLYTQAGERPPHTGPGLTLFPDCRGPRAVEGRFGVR

T2: hCD112R mFC recombinant protein (human; murine, UniProt Q6DKI7 41-160)
T2 construct: range 41-160; expressed in 293E cells; also called hCD112R ECD mFC; hCD112R-ECD-mFC; not shown: murine IgG2a Fc domain (MX2-mFc vector)
T2 sequence (looked up): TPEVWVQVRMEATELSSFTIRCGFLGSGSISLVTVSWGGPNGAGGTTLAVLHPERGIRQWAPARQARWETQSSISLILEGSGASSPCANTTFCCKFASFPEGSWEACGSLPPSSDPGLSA

T3: human CD112R on Jurkat CD112R effector cells (human, UniProt Q6DKI7 1-326)
T3 sequence (looked up): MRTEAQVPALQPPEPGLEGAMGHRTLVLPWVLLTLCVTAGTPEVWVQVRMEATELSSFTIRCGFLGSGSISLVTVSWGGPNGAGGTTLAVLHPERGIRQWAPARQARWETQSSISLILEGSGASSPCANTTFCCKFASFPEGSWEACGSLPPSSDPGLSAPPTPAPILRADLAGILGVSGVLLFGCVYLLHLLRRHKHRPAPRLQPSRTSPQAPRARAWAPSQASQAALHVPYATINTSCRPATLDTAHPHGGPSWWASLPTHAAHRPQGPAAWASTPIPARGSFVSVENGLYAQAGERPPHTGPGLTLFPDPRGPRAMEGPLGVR

T4: human CD112R on CHO-CD112R cells (human, UniProt Q6DKI7 41-326)
T4 construct: whole, on cells; also called hCD112R; PVRIG
T4 sequence (looked up): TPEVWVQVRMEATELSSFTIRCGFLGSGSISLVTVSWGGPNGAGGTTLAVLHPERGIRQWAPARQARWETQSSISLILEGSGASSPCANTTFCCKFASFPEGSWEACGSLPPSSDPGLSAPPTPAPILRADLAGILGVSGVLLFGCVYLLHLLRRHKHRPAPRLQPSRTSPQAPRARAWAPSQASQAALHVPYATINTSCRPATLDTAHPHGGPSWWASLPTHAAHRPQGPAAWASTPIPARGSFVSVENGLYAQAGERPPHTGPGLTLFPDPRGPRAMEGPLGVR

B1: Chi-45 (antibody, V domains shown)
VH: DVKLVESGGGLVKLGGSLKLSCAASGFTFSSYHMSWVRQTPEKRLELVAAINSNVISTYYLDTVKGRFTISRDNAKNTLYLQMSSLKSEDTALYYCARHEDYYGFAMDYWGQGTSVTVSS
VL: SIVMTQTPKFLLVSAGDRVTITCKASQSVSNDVAWYQEKPGQSPKLLMYYVSHRFTGVPDRFTGSGYGTDFTFTINTVQAEDLAVYFCHQAYRSPWTFGGGTKLEIK
notes: chimeric
B2: Chi-63 (antibody, V domains shown)
VH: DVKLVESGGGLVKLGGSLKLSCAASGFTFSSYHMSWVRQTPEKRLELVAAISRDGDSTYYPDTVKGRFTISRDDAENTLYLQMSSLKSEDTALYYCSRHEDYFGFAMDSWGQGTSVTVSS
VL: B1 VL with S30T, E38Q, H53N, R54H, F55Y, T63I, N76S, H89Q
notes: chimeric
B3: Chi-54 (antibody, V domains shown)
VH: B1 VH with V37I, V55G, S57N
VL: B1 VL with E38Q, H53N, H89Q
notes: chimeric
B4: Chi-36 (antibody, V domains shown)
VH: EVQLQQSGPELVKPGASVRISCKASGYTFTDYNMHWVKQSHGKSLEWIGYIYPYNGGTGHNQNFKSKATLTVDKSSSTAYMEFRSLTSDDSAVYYCAREDFRHEKMDYWGQGTSVTVSS
VL: DIQMTQSPASLSASVGETVTITCRTSDNIYVYLSWYQQKQGKSPQLLVYNAKTLTENVPSRFSGSGSGTQFSLKINSLQPEDFGSYYCQHHYGTPYTFGGGTKLEIK
notes: chimeric
B5: Hu34 (antibody, IgG4, V domains shown)
VH: EVQLVESGGGLVQPGGSLRLSCAASGFTFSSYHMSWVRQAPGKGLELVAAISRDGDSTYYPDTVKGRFTISRDDAENSLYLQMNSLRAEDTAVYYCSRHEDYFGFAMDSWGQGTLVTVSS
VL: DIVMTQSPDSLAVSLGERATINCKASQSVSNDVAWYQQKPGQPPKLLIYYVSHRFTGVPDRFSGSGSGTDFTLTISSLQAEDVAVYFCHQAYRSPWTFGQGTKLEIK
notes: humanized IgG4
B6: Hu33 (antibody, IgG4, V domains shown)
VH: B5 VH
VL: EIVMTQSPPTLSLSPGERVTLSCKASQSVSNDVAWYQEKPGQAPRLLIYYVSHRFTGIPARFSGSGSGTDFTLTISSLQPEDFAVYYCHQAYRSPWTFGQGTKLEIK
notes: humanized IgG4
B7: Chi-72 (antibody, V domains shown)
VH: B1 VH with K3Q, A23V, V37I, V55D, S57N, N74I, Y80H
VL: DIQLTQSPASLSVSVGETVTITCRVSANIYSNLVWYHQRQGKSPQLLVYGGTNLADGVPSRFSGSGSGTQFSLKINSLQSEDFGSYHCQHFWSTPYTFGGGTKLEIK
notes: chimeric
B8: 8H8.1 (antibody, V domains shown)
VH: EVKLVESGGGLVKPGGSLKVSCAASGFTFSDYPMSWVRQTPDKRLEWVACIDTDENTYYPDSVKGRFTISRDNGRNIVNLQMSSLRSEDAAMYYCARGWDDYAAWFAYWGQGTLVTVSA
VL: ENVLTQFPAIMSVFLGERVTMSCRASSSVNYMYWYQQKSDASPKLWIYHTSNLAPGVPARFSGSGSGNSYSLTISSMEGEDAATYYCQQFTSSPWTFGGGTKLEIK
notes: murine hybridoma antibody

molecular target: T1, recombinant cynomolgus monkey CD112R …; assay: ELISA, coated cynomolgus monkey CD112R
Method: (§1) A plate was coated with a recombinant cynomolgus monkey CD112R antigen (Acrobiosystems, Cat No. PVG-C5259) at a fixed concentration, and the chimeric anti-CD112R antibodies diluted in a gradient (initial concentration: 1 μg/mL, 2.5-fold gradient dilution, 12 concentration gradients in total) were added to bind to the antigen. Horseradish peroxidase (HRP)-conjugated mouse anti-human IgG4 Fc (Southern Biotech, 9200-05) was subjected to a 5000-fold dilution and used as a detection antibody for detection. The color development was performed with 0.1 mg/mL TMB, and finally stopped with 2 M hydrochloric acid. The plate was read at 420 nm/620 nm. EC₅₀ was obtained by fitting with a four-parameter logistic regression (4PL) model.

| Binder | EC50 [µg/mL] |
| --- | --- |
| B1 | 0.00298 |
| B2 | 0.00436 |
| B3 | 0.00327 |
| B4 | 0.00391 |

molecular target: T1, recombinant cynomolgus monkey CD112R …; assay: ELISA, coated cynomolgus monkey CD112R; EC50 Ref/EC50 antibody
Method: as §1

| Binder | Relative activity (%) |
| --- | --- |
| B1 | 118 |
| B2 | 96.1 |
| B3 | 107 |
| B4 | 89.6 |

molecular target: T2, hCD112R mFC recombinant protein; assay: FACS competition, hCD112R mFc on CHO CD112 cells
Outline: (§2)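 CHO cells overexpressing human CD112 were co-incubated 30 min at 4 °C with hCD112R mFc (5 μg/mL) and humanized anti-CD112R antibodies (from 100 μg/mL, 3-fold, 10 points). Bound fusion protein detected with anti-mouse IgG Fc secondary by flow cytometry; IC50 from four-parameter fit of MFI. COM701 served as positive control, anti-KLH hu-IgG4 as negative.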

| Binder | IC50 [µg/mL] |
| --- | --- |
| B5 | 2.4 |
| B6 | 2.48 |

molecular target: T3, human CD112R on Jurkat CD112R effector …; assay: cell-based or functional assay

| Binder | EC50, CD112R/CD112 reporter [µg/mL] | Relative activity (%), EC50 COM701/EC50 antibody [%] |
| --- | --- | --- |
| B5 | 0.0336 | 160 |
| B6 | 0.0341 | 157 |

molecular target: T4, human CD112R on CHO-CD112R cells; assay: FACS on CHO-CD112R cells
Method: (§3) CHO-CD112R cells (constructed in-house by Junshi, the amino acid sequence of CD112R in the construction of stable cell lines overexpressing CD112R comprises amino acids at positions Met1-Arg326 under NCBI accession No. Q6DKI7) overexpressing human CD112R were incubated with each of the chimeric anti-CD112R antibodies at different concentrations (initial concentration: 50 μg/mL, 5-fold dilution, 12 concentration gradients in total) at 4° C. for 30 min, and then washed and incubated with a fluorescence-labeled secondary antibody at 4° C. for 30 min in the dark. Finally, the cells were collected by using a flow cytometer (BD Canto II), and the fluorescent antibodies bound to the cell surface were detected. Raw data were analyzed by using FlowJo to obtain MFI values, the antibody dose-dependent binding curves were fitted by using GraphPad (FIG. 3, a and b) and EC₅₀ was calculated (Table 3). The positive control and the negative control were Ref (anti-CD112R antibody, University of Colorado, obtained by expression and purification according to the sequences in US20170240613) and anti-KLH hu-IgG4 antibody, respectively.

| Binder | EC50 [µg/mL] |
| --- | --- |
| B1 | 0.726 |
| B7 | 12.3 |
| B2 | 0.531 |
| B3 | 0.122 |
| B4 | 0.351 |

molecular target: T2, hCD112R mFC recombinant protein; assay: ELISA, coated hCD112R-ECD-mFC
Outline: (§4)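 Plates coated with hCD112R-ECD-mFC at 1.5 μg/mL; humanized antibodies titrated from 1 μg/mL, 2.5-fold, 12 points. Bound antibody detected with HRP anti-human IgG Fc and TMB, read at 420/620 nm; EC50 from 4PL fit, COM701 and anti-KLH hu-IgG4 as controls.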

| Binder | EC50 [µg/mL] |
| --- | --- |
| B5 | 0.00368 |
| B6 | 0.00348 |

molecular target: T2, hCD112R mFC recombinant protein; assay: FACS competition, hCD112R mFc on CHO CD112 cells; IC50 COM701/IC50 antibody
Outline: as §2

| Binder | Relative activity (%) |
| --- | --- |
| B5 | 149 |
| B6 | 144 |

molecular target: T2, hCD112R mFC recombinant protein; assay: Biacore T200, antibody captured, hCD112R mFc injected
Method: Biacore T200 was used to assay the binding affinity of the anti-CD112R hybridoma antibodies for the recombinant hCD112R mFc protein. […] antibody fragments (Jackson ImmunoResearch) were coupled to the surface of a CM5 chip, and the anti-CD112R hybridoma antibodies were each captured by using the chip, after which recombinant hCD112R mFc proteins at different concentrations were injected into the CM5 chip.

| Binder | Kd [nM] |
| --- | --- |
| B8 | 0.0588 |

molecular target: T2, hCD112R mFC recombinant protein; assay: ELISA, coated hCD112R-ECD-mFC; EC50 COM701/EC50 antibody
Outline: as §4

| Binder | Relative activity (%) |
| --- | --- |
| B5 | 162 |
| B6 | 174 |

molecular target: T4, human CD112R on CHO-CD112R cells; assay: FACS on CHO-CD112R cells; EC50 Ref/EC50 antibody
Method: as §3

| Binder | Relative activity (%) |
| --- | --- |
| B1 | 231 |
| B7 | 35 |
| B2 | 805 |
| B3 | 3520 |
| B4 | 478 |

molecular target: T3, human CD112R on Jurkat CD112R effector …; assay: cell-based or functional assay; remark: another data set of the same source

| Binder | EC50, CD112R/CD112 reporter [µg/mL] | Relative activity (%), EC50 Ref/EC50 antibody [%] |
| --- | --- | --- |
| B1 | 0.0119 | 2710 |
| B2 | 0.0174 | 1490 |
| B3 | 0.00746 | 4210 |
| B4 | 0.0306 | 1060 |
